How the values were obtained:
[1] = molecular target: T1, recombinant human PGLYRP1 generated in-house (SEQ ID NO: 1) (human, UniProt O75594 22-196); test: direct ELISA on PGLYRP1 protein (primary screening of hybridoma supernatants)
T1 sequence: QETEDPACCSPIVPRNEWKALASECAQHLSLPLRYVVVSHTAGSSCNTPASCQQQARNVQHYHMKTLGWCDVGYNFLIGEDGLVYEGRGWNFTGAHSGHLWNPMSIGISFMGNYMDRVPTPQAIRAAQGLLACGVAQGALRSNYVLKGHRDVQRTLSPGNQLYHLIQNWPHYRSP

[2] = molecular target: T2, endogenous human PGLYRP1 (neutrophils; RA synovial fluid) (human, UniProt O75594 22-196); test: crosslinking, immunoprecipitation and LC/MS/MS from human neutrophils; CD83-Fc as control bait
T2 construct: also called PGRP-S; neutrophil-derived PGLYRP1
T2 sequence (looked up): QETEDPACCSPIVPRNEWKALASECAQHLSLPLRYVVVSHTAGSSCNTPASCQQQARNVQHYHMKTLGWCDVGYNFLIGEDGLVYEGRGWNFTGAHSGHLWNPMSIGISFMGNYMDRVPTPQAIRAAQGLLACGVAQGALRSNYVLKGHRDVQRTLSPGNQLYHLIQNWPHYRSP

[3] = molecular target: T3, Type II PGLYRP2 on HEK293-6E cells (human, UniProt Q96PD5 22-576); test: flow cytometry on transfected HEK293-6E cells
T3 construct: also called hPGLYRP2; PGRP-L
T3 sequence: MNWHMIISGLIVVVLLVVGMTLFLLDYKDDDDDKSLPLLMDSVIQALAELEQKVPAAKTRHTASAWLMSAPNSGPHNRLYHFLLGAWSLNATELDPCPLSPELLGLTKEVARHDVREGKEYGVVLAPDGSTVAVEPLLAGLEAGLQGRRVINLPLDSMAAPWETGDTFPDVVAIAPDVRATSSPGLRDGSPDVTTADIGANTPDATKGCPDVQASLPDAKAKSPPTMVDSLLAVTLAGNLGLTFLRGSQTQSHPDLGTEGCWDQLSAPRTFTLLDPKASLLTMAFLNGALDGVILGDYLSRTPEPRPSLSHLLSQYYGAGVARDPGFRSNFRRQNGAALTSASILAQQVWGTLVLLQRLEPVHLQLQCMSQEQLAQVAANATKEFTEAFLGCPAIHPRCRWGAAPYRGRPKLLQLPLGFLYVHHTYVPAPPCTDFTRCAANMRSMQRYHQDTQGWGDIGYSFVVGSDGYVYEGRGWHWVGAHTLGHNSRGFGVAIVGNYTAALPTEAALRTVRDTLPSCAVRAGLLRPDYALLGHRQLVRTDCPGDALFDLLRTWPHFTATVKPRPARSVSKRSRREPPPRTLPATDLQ
Protocol: (§1) 51.2090KZ, BD Biosciences, San Jose Calif., USA) for intracellular staining or 2% FBS/PBS for surface staining: cell pellets were resuspended in a 96-well round bottom plate (to begin with: 160,000 cells/well) with 200 μl cytofix/perm buffer for 15 minutes at 22 C., washed twice with 200 μl 1× PermWash Buffer (diluted 10× in DiH20), stained with 50 μl probe diluted to 5 µg/ml in 1× PermWash buffer, incubated for 1 hour at 4 C., cells were then washed with 200 μl 1× PermWash Buffer, a secondary probe was added in 50 μl 1× PermWash buffer, cells were incubated at 4 C. for 30 minutes, washed twice with 200 μl 1× PermWash Buffer, pellets were resuspended in 50 μl 1:1 PBS diluted CytoFix (BD:554655, San Jose, Calif.), incubated for 5 minutes at 22 C., 150 μl PBS/2% FBS was added, centrifuged for 5 minutes at 300 g, washed 1× with 200 μl PBS/2% FBS and resuspended in 100 μl PBS/2% FBS. Binding was analysed using FACS on LSRII (BD, San Jose Calif., USA).

[4] = molecular target: T4, Type II PGLYRP4 on HEK293-6E cells (human, UniProt Q96LB8 18-373); test: flow cytometry on transfected HEK293-6E cells
T4 construct: also called hPGLYRP4; PGRP-1b
T4 sequence: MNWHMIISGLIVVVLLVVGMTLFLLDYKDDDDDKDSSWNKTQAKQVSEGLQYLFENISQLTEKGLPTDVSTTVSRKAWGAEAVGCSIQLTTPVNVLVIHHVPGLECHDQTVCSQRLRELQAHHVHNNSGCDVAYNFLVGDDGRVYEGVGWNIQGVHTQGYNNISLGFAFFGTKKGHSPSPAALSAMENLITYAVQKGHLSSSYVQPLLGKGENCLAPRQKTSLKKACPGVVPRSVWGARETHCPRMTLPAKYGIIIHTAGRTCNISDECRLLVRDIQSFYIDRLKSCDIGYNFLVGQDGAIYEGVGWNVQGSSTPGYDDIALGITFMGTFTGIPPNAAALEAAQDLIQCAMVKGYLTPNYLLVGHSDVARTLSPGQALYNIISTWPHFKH
Protocol: as §1

[5] = molecular target: T5, Type II muPGLYRP1 on HEK293-6E cells (mouse, UniProt O88593 19-182); test: flow cytometry on transfected HEK293-6E cells
T5 construct: whole, on cells; also called mouse PGLYRP1; not shown: Type II membrane anchor; construct is not described in the text
T5 sequence (looked up): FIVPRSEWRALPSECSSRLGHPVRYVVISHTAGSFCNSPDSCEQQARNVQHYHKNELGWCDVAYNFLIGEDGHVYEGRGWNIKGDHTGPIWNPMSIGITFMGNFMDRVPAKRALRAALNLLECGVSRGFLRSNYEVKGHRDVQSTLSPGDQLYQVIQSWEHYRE
Protocol: as §1

B1: M-hPGRPS-2F5 (antibody, V domains shown)
VH: EVQLVESGGGLVKPGGSLKLSCAASGFSFSDYYMYWVRQTPEKRLEWVAAISDDSTYTYYPDSVKGRFTISRDNAKNNLYLQMSSLKSEDTAMYYCARGGYGNLYAMDYWGQGTSVTVSS
VL: QIVLTQSPAIMSASLGERVTMTCTASSSVSSSYLHWYQQKPGSSPKLWIYSTSNLASGVPARFSGSGSGTSYSLTISSMEAEDAATYYCHQYHRSPFTFGSGTKLEIKR
notes: Tested as hybridoma supernatant
binding result [1]: binds

B2: M-hPGRPS-2F7 (antibody, V domains shown)
VH: EVQLQQSGPEVVKPGTSVKMSCKASGYTFTNYVMHWVRQKPGQGLEWVGWINPFNDGTNYNENFKNKATLTSDKSSSTAYMELSSLTSEDSAVYYCARSGFITTLIEDYWGQGTTLTVSS
VL: NIVMTQSPKYMSMSVGERVTLTCKASESVGSFVSWYQQKADQSPNLLIYGASNRYTGVPDRFTGSGSARDFTLTISSVQAKDLAEYYCGQYYTHPTFGAGTKLELKR
notes: as for B1
binding result [1]: binds

B3: hCD83-G4Sx3-hCD83/Fc6mut (CD83-Fc, hCD83 tetramer) (Fc fusion)
chain: TPEVKVACSEDVDLPCTAPWDPQVPYTVSWVKLLEGGEERMETPQEDHLRGQHYHQKGQNGSFDAPNERPYSLKIRNTTSCNSGTYRCTLQDPDGQRNLSGKVILRVTGCPAQRKEETFKKYRAEGTGGGGSGGGGSGGGGSTPEVKVACSEDVDLPCTAPWDPQVPYTVSWVKLLEGGEERMETPQEDHLRGQHYHQKGQNGSFDAPNERPYSLKIRNTTSCNSGTYRCTLQDPDGQRNLSGKVILRVTGCPAQRKEETFKKYRAEGALAGTEPKSSDKTHTCPPCPAPEAEGAPSVFLFPPKPKDTLMISRTPEVTCVVVDVSHEDPEVKFNWYVDGVEVHNAKTKPREEQYNSTYRVVSVLTVLHQDWLNGKEYKCKVSNKALPSSIEKTISKAKGQPREPQVYTLPPSREEMTKNQVSLTCLVKGFYPSDIAVEWESNGQPENNYKTTPPVLDSDGSFFLYSKLTVDKSRWQQGNVFSCSVMHEALHNHYTQKSLSLSPGK
notes: also called control construct (CD83); control protein
binding result [2]: no binding (tested: 100 µg/ml)

B4: huTREML1.Fc dimer (C0246) (Fc fusion)
chain: QGIVGSLPEVLQAPVGSSILVQCHYRLQDVKAQKVWCRFLPEGCQPLVSSAVDRRAPAGRRTFLTDLGGGLLQVEMVTLQEEDAGEYGCMVDGARGPQILHRVSLNILPPEEEEETHKIGSLAENAFSDPAGSANPLEPSQDEKSIPGTEPKSSDKTHTCPPCPAPEAEGAPSVFLFPPKPKDTLMISRTPEVTCVVVDVSHEDPEVKFNWYVDGVEVHNAKTKPREEQYNSTYRVVSVLTVLHQDWLNGKEYKCKVSNKALPSSIEKTISKAKGQPREPQVYTLPPSREEMTKNQVSLTCLVKGFYPSDIAVEWESNGQPENNYKTTPPVLDSDGSFFLYSKLTVDKSRWQQGNVFSCSVMHEALHNHYTQKSLSLSPGK
notes: Entry may hold the hCD33 leader; code tied by the name of the construct only; also called huTremL1.Fc (C0246); hTREML1-Fc6mut dimer
ratio of MFI of probe staining over negative control staining [3]: < 1 ratio | ratio of MFI of probe staining over negative control staining [4]: < 1 ratio | ratio of MFI of probe staining over negative control staining [5]: < 1 ratio

B5: huTREML2.Fc dimer (C0247) (Fc fusion)
chain: GPSADSVYTKVRLLEGETLSVQCSYKGYKNRVEGKVWCKIRKKKCEPGFARVWVKGPRYLLQDDAQAKVVNITMVALKLQDSGRYWCMRNTSGILYPLMGFQLDVSPAPQTERNIPFTHLDNILKSGTVTTGQAPTSGPDAPFTTGVMVFTPGLITLPRLLASTRPASKTGYSFTATSTTSQGPRRTMGSQTVTASPSNARDSSAGPESISTKSGDLSTRSPTTGLCLTSRSLLNRLPSMPSIRHQDVYSGTEPKSSDKTHTCPPCPAPEAEGAPSVFLFPPKPKDTLMISRTPEVTCVVVDVSHEDPEVKFNWYVDGVEVHNAKTKPREEQYNSTYRVVSVLTVLHQDWLNGKEYKCKVSNKALPSSIEKTISKAKGQPREPQVYTLPPSREEMTKNQVSLTCLVKGFYPSDIAVEWESNGQPENNYKTTPPVLDSDGSFFLYSKLTVDKSRWQQGNVFSCSVMHEALHNHYTQKSLSLSPGK
notes: Entry may hold the hCD33 leader; code tied by the name of the construct only; also called huTremL2.Fc (C0247); hTREML2-Fc6mut dimer
ratio of MFI of probe staining over negative control staining [3]: < 1 ratio | ratio of MFI of probe staining over negative control staining [4]: < 1 ratio

B6: huTREM2.Fc dimer (C0248) (Fc fusion)
chain: HNTTVFQGVAGQSLQVSCPYDSMKHWGRRKAWCRQLGEKGPCQRVVSTHNLWLLSFLRRWNGSTAITDDTLGGTLTITLRNLQPHDAGLYQCQSLHGSEADTLRKVLVEVLADPLDHRDAGDLWFPGESESFEDAHVEHSISRSLLEGEIPFPPTSGTEPKSSDKTHTCPPCPAPEAEGAPSVFLFPPKPKDTLMISRTPEVTCVVVDVSHEDPEVKFNWYVDGVEVHNAKTKPREEQYNSTYRVVSVLTVLHQDWLNGKEYKCKVSNKALPSSIEKTISKAKGQPREPQVYTLPPSREEMTKNQVSLTCLVKGFYPSDIAVEWESNGQPENNYKTTPPVLDSDGSFFLYSKLTVDKSRWQQGNVFSCSVMHEALHNHYTQKSLSLSPGK
notes: Entry may hold the hCD33 leader; code tied by the name of the construct only; also called huTrem2.Fc (C0248); hTREM2-Fc6mut dimer
ratio of MFI of probe staining over negative control staining [3]: < 1 ratio | ratio of MFI of probe staining over negative control staining [4]: < 1 ratio
